The labels stand for the following.
T1: human calcitonin receptor (human, UniProt P30988 25-474)
T1 construct: whole, on cells; Used as cell membranes prepared from the transfected BHK cells (Assay VII), not as intact cells; also called hCTR; hCT
T1 sequence (looked up): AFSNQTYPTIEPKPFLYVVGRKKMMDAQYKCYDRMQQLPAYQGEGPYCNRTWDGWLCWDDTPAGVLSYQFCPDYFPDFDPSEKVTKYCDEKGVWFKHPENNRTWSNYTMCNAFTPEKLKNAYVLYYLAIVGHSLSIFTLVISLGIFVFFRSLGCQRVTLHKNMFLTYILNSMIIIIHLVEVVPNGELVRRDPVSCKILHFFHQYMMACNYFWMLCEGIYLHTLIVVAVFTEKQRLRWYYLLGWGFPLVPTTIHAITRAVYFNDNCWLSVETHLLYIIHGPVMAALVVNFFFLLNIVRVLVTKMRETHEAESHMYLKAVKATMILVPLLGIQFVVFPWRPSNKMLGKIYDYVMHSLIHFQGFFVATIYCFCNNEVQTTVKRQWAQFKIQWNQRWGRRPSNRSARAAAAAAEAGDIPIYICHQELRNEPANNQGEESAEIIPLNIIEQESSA

B1: N^α1-[(4S)-4-carboxy-4-(19-carboxynonadecanoylamino)butanoyl]-[Glu14,Arg17,Pro21,Pro26]-h-amylin (peptide)
peptide: {C20 diacid-γGlu}-KCNTATCATQRLAEFLRHSSPNFGAPLSSTNVGSNTY-NH2
modifications: disulfide 2-7
SMILES: CC(C)C[C@H](NC(=O)[C@H](CCCNC(=N)N)NC(=O)[C@H](CCC(N)=O)NC(=O)[C@@H](NC(=O)[C@H](C)NC(=O)[C@@H]1CSSC[C@H](NC(=O)[C@H](CCCCN)NC(=O)CC[C@H](NC(=O)CCCCCCCCCCCCCCCCCCC(=O)O)C(=O)O)C(=O)N[C@@H](CC(N)=O)C(=O)N[C@@H]([C@@H](C)O)C(=O)N[C@@H](C)C(=O)N[C@@H]([C@@H](C)O)C(=O)N1)[C@@H](C)O)C(=O)N[C@@H](C)C(=O)N[C@@H](CCC(=O)O)C(=O)N[C@@H](Cc1ccccc1)C(=O)N[C@@H](CC(C)C)C(=O)N[C@@H](CCCNC(=N)N)C(=O)N[C@@H](Cc1c[nH]cn1)C(=O)N[C@@H](CO)C(=O)N[C@@H](CO)C(=O)N1CCC[C@H]1C(=O)N[C@@H](CC(N)=O)C(=O)N[C@@H](Cc1ccccc1)C(=O)NCC(=O)N[C@@H](C)C(=O)N1CCC[C@H]1C(=O)N[C@@H](CC(C)C)C(=O)N[C@@H](CO)C(=O)N[C@@H](CO)C(=O)N[C@H](C(=O)N[C@@H](CC(N)=O)C(=O)N[C@H](C(=O)NCC(=O)N[C@@H](CO)C(=O)N[C@@H](CC(N)=O)C(=O)N[C@H](C(=O)N[C@@H](Cc1ccc(O)cc1)C(N)=O)[C@@H](C)O)C(C)C)[C@@H](C)O
notes: also called compound 7
B2: N^ε1-[2-[2-[2-[[2-[2-[2-[[(4S)-4-carboxy-4-(19-carboxynonadecanoylamino)butanoyl]amino]ethoxy]ethoxy]acetyl]amino]ethoxy]ethoxy]acetyl]-[Arg17,Pro21,Pro27,Glu35 … (peptide)
peptide: K([AEEA-AEEA-γGlu-C20 diacid])CNTATCATQRLANFLRHSSPNFGAIPSSTNVGSETY-NH2
modifications: disulfide 2-7; N-terminus assumed
SMILES: CC[C@H](C)[C@H](NC(=O)[C@H](C)NC(=O)CNC(=O)[C@H](Cc1ccccc1)NC(=O)[C@H](CC(N)=O)NC(=O)[C@@H]1CCCN1C(=O)[C@H](CO)NC(=O)[C@H](CO)NC(=O)[C@H](Cc1c[nH]cn1)NC(=O)[C@H](CCCNC(=N)N)NC(=O)[C@H](CC(C)C)NC(=O)[C@H](Cc1ccccc1)NC(=O)[C@H](CC(N)=O)NC(=O)[C@H](C)NC(=O)[C@H](CC(C)C)NC(=O)[C@H](CCCNC(=N)N)NC(=O)[C@H](CCC(N)=O)NC(=O)[C@@H](NC(=O)[C@H](C)NC(=O)[C@@H]1CSSC[C@H](NC(=O)[C@@H](N)CCCCNC(=O)COCCOCCNC(=O)COCCOCCNC(=O)CC[C@H](NC(=O)CCCCCCCCCCCCCCCCCCC(=O)O)C(=O)O)C(=O)N[C@@H](CC(N)=O)C(=O)N[C@@H]([C@@H](C)O)C(=O)N[C@@H](C)C(=O)N[C@@H]([C@@H](C)O)C(=O)N1)[C@@H](C)O)C(=O)N1CCC[C@H]1C(=O)N[C@@H](CO)C(=O)N[C@@H](CO)C(=O)N[C@H](C(=O)N[C@@H](CC(N)=O)C(=O)N[C@H](C(=O)NCC(=O)N[C@@H](CO)C(=O)N[C@@H](CCC(=O)O)C(=O)N[C@H](C(=O)N[C@@H](Cc1ccc(O)cc1)C(N)=O)[C@@H](C)O)C(C)C)[C@@H](C)O
notes: also called compound 25
B3: N^α1-[(4S)-4-carboxy-4-(19-carboxynonadecanoylamino)butanoyl]-[His14,Arg17,Pro21,Pro27,Glu35]-h-amylin (peptide)
peptide: {C20 diacid-γGlu}-KCNTATCATQRLAHFLRHSSPNFGAIPSSTNVGSETY-NH2
modifications: disulfide 2-7
SMILES: CC[C@H](C)[C@H](NC(=O)[C@H](C)NC(=O)CNC(=O)[C@H](Cc1ccccc1)NC(=O)[C@H](CC(N)=O)NC(=O)[C@@H]1CCCN1C(=O)[C@H](CO)NC(=O)[C@H](CO)NC(=O)[C@H](Cc1c[nH]cn1)NC(=O)[C@H](CCCNC(=N)N)NC(=O)[C@H](CC(C)C)NC(=O)[C@H](Cc1ccccc1)NC(=O)[C@H](Cc1c[nH]cn1)NC(=O)[C@H](C)NC(=O)[C@H](CC(C)C)NC(=O)[C@H](CCCNC(=N)N)NC(=O)[C@H](CCC(N)=O)NC(=O)[C@@H](NC(=O)[C@H](C)NC(=O)[C@@H]1CSSC[C@H](NC(=O)[C@H](CCCCN)NC(=O)CC[C@H](NC(=O)CCCCCCCCCCCCCCCCCCC(=O)O)C(=O)O)C(=O)N[C@@H](CC(N)=O)C(=O)N[C@@H]([C@@H](C)O)C(=O)N[C@@H](C)C(=O)N[C@@H]([C@@H](C)O)C(=O)N1)[C@@H](C)O)C(=O)N1CCC[C@H]1C(=O)N[C@@H](CO)C(=O)N[C@@H](CO)C(=O)N[C@H](C(=O)N[C@@H](CC(N)=O)C(=O)N[C@H](C(=O)NCC(=O)N[C@@H](CO)C(=O)N[C@@H](CCC(=O)O)C(=O)N[C@H](C(=O)N[C@@H](Cc1ccc(O)cc1)C(N)=O)[C@@H](C)O)C(C)C)[C@@H](C)O
notes: also called compound 30
B4: N^α1-[(4S)-4-carboxy-4-(19-carboxynonadecanoylamino)butanoyl]-[Glu14,Arg17,Pro21,Pro27,Pro31]-h-amylin (peptide)
peptide: {C20 diacid-γGlu}-KCNTATCATQRLAEFLRHSSPNFGAIPSSTPVGSNTY-NH2
modifications: disulfide 2-7
SMILES: CC[C@H](C)[C@H](NC(=O)[C@H](C)NC(=O)CNC(=O)[C@H](Cc1ccccc1)NC(=O)[C@H](CC(N)=O)NC(=O)[C@@H]1CCCN1C(=O)[C@H](CO)NC(=O)[C@H](CO)NC(=O)[C@H](Cc1c[nH]cn1)NC(=O)[C@H](CCCNC(=N)N)NC(=O)[C@H](CC(C)C)NC(=O)[C@H](Cc1ccccc1)NC(=O)[C@H](CCC(=O)O)NC(=O)[C@H](C)NC(=O)[C@H](CC(C)C)NC(=O)[C@H](CCCNC(=N)N)NC(=O)[C@H](CCC(N)=O)NC(=O)[C@@H](NC(=O)[C@H](C)NC(=O)[C@@H]1CSSC[C@H](NC(=O)[C@H](CCCCN)NC(=O)CC[C@H](NC(=O)CCCCCCCCCCCCCCCCCCC(=O)O)C(=O)O)C(=O)N[C@@H](CC(N)=O)C(=O)N[C@@H]([C@@H](C)O)C(=O)N[C@@H](C)C(=O)N[C@@H]([C@@H](C)O)C(=O)N1)[C@@H](C)O)C(=O)N1CCC[C@H]1C(=O)N[C@@H](CO)C(=O)N[C@@H](CO)C(=O)N[C@H](C(=O)N1CCC[C@H]1C(=O)N[C@H](C(=O)NCC(=O)N[C@@H](CO)C(=O)N[C@@H](CC(N)=O)C(=O)N[C@H](C(=O)N[C@@H](Cc1ccc(O)cc1)C(N)=O)[C@@H](C)O)C(C)C)[C@@H](C)O
notes: also called compound 31
B5: N^α1-[(4S)-4-carboxy-4-(19-carboxynonadecanoylamino)butanoyl]-[Glu14,Arg17,Pro21,Pro27,Arg35]-h-amylin (peptide)
peptide: {C20 diacid-γGlu}-KCNTATCATQRLAEFLRHSSPNFGAIPSSTNVGSRTY-NH2
modifications: disulfide 2-7
SMILES: CC[C@H](C)[C@H](NC(=O)[C@H](C)NC(=O)CNC(=O)[C@H](Cc1ccccc1)NC(=O)[C@H](CC(N)=O)NC(=O)[C@@H]1CCCN1C(=O)[C@H](CO)NC(=O)[C@H](CO)NC(=O)[C@H](Cc1c[nH]cn1)NC(=O)[C@H](CCCNC(=N)N)NC(=O)[C@H](CC(C)C)NC(=O)[C@H](Cc1ccccc1)NC(=O)[C@H](CCC(=O)O)NC(=O)[C@H](C)NC(=O)[C@H](CC(C)C)NC(=O)[C@H](CCCNC(=N)N)NC(=O)[C@H](CCC(N)=O)NC(=O)[C@@H](NC(=O)[C@H](C)NC(=O)[C@@H]1CSSC[C@H](NC(=O)[C@H](CCCCN)NC(=O)CC[C@H](NC(=O)CCCCCCCCCCCCCCCCCCC(=O)O)C(=O)O)C(=O)N[C@@H](CC(N)=O)C(=O)N[C@@H]([C@@H](C)O)C(=O)N[C@@H](C)C(=O)N[C@@H]([C@@H](C)O)C(=O)N1)[C@@H](C)O)C(=O)N1CCC[C@H]1C(=O)N[C@@H](CO)C(=O)N[C@@H](CO)C(=O)N[C@H](C(=O)N[C@@H](CC(N)=O)C(=O)N[C@H](C(=O)NCC(=O)N[C@@H](CO)C(=O)N[C@@H](CCCNC(=N)N)C(=O)N[C@H](C(=O)N[C@@H](Cc1ccc(O)cc1)C(N)=O)[C@@H](C)O)C(C)C)[C@@H](C)O
notes: also called compound 16

Numbered stars: 1 amine (or outer) side, 2 acyl side, 3 side chain; on linkers, the order of the positions; unused ones are H or OH. Bridge positions count the residues as written; N and C are the ends. Side chains are listed from the residue outwards. Ends that are not written are not given here. * marks the point of attachment. C20 diacid = O=C(O)CCCCCCCCCCCCCCCCCCC(=O)*; γGlu = O=C(O)[C@H](CCC(=O)[*:2])N[*:1]; AEEA = NCCOCCOCC(=O)O

Data on 5 molecules can be found in patent US20140087995A1 (published 2014).

The assay concerns the target T1, human calcitonin receptor. Nature of the assay: SPA competition against 125I-calcitonin, membranes with human calcitonin receptor (Assay VII). How it is done:
Membranes were prepared in the following way; the cells were rinsed with PBS and incubated with Versene for approximately 5 min before harvesting. The cells were flushed with PBS and the cell-suspension was centrifuged for 5 min at 1000 rpm. Cells were homogenized (Ultrathurrax) in a buffer containing 20 mM Na-HEPES and 10 mM EDTA (pH 7.4) and centrifuged at 20.000 rpm for 15 min. The resulting pellet was resuspended, homogenized and centrifuged (20.000 rpm, 15 min) in a buffer containing 20 mM Na-HEPES and 0.1 mM EDTA (pH 7.4, buffer 2). The resulting pellet was resuspended in buffer 2 and protein concentration was measured (BCA protein Assay, Pierce). The homogenate was kept cold during the whole procedure. The membranes were kept at −80° C. until use. Assay was performed in a 384 well Optiplate (PerkinElmer) in a total volume of 40 ul. Membranes were mixed with SPA beads. Final concentration of membranes 35 ng/μL final and Final concentration of SPA beads was 0.05 mg/well. Test-compounds were dissolved in DMSO and further diluted in assay buffer (50 mM Hepes, pH 7.4, 1 mM CaCl2, 5 mM MgCl₂, 0.1% OA and 0.02% Tween20). […] The final mixture was incubated for 120 min with shaking at 400 rpm at 25° C. prior to centrifugation (1500 rpm, 10 min). Samples were analyzed on TopCounter™ (Packard). The […] was calculated using (one site binding competition analysis) GraphPad Prism5 as a measure of receptor affinity.
With B1, the IC50 was found to be 11.1 nM.

As to B2, the IC50 was found to be 43.4 nM.

Turning to B3, the IC50 turned out to be 21.6 nM.

As for B4, the IC50 is 3.26 nM.

As to B5, the IC50 was 17.1 nM.
